{"source": "patent US8466107B2", "about": "“Fibrin-binding peptides and conjugates thereof” (Bracco Imaging SpA, priority 2006, dated 2013)", "biological_target": "T1, human clots (Homo sapiens, UniProt P02671+P02675+P02679)", "T1 construct": "Small plasma clots from different species (human, guinea pig and mouse); tissue Dade Behring; host or cells: pooled human plasma (Control Plasma N), clotted with Pathromtin SL and CaCl2", "T1 sequence (P02671 36-629 limits assumed)": "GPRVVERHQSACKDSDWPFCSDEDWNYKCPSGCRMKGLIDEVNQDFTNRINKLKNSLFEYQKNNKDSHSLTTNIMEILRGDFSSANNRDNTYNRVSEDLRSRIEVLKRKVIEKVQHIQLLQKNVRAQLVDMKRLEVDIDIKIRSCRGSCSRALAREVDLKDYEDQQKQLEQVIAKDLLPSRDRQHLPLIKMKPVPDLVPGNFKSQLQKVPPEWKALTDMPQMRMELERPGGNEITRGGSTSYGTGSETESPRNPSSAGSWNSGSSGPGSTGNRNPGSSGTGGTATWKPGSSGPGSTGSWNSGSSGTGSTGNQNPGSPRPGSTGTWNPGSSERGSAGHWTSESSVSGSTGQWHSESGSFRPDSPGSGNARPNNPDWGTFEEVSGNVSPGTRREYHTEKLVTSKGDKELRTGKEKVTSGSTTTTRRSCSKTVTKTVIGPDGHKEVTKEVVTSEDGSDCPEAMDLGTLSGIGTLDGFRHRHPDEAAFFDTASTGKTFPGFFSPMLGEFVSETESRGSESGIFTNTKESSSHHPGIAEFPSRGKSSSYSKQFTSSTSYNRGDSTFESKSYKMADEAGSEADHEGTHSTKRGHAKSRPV", "T1 sequence (P02675 45-491 limits assumed)": "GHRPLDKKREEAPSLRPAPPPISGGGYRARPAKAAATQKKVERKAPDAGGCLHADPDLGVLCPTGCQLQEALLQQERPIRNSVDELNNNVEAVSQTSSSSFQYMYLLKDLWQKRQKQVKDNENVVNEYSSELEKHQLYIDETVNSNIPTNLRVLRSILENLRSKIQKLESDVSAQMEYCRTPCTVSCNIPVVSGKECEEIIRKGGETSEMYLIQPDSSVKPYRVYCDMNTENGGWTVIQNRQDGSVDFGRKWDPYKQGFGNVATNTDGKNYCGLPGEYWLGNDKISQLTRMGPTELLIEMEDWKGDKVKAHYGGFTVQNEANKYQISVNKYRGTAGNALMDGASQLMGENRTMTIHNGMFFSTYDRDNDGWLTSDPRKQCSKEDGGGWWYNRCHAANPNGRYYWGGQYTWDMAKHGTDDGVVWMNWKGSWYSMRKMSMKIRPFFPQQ", "T1 sequence (P02679 27-437 isoform P02679-2 limits assumed)": "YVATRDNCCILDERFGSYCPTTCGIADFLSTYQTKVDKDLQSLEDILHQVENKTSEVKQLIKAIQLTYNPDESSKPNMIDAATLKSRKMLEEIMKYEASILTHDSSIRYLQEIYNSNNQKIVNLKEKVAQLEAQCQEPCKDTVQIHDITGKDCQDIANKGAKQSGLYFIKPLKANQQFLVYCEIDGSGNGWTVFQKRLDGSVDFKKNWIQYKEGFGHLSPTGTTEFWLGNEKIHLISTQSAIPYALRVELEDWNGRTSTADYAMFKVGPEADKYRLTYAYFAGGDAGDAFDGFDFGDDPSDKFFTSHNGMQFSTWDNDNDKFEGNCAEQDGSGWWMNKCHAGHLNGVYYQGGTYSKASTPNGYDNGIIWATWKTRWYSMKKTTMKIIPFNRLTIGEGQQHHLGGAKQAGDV", "experiment": "In vitro MRI test of signal enhancement in plasma clots incubated with contrast agents", "assay_type": "binding", "procedure": "Small plasma clots from different species (human, guinea pig and mouse) ranging from 0.5-7 mm in diameter were formed by combining citrate plasma (1:3,v/v) phospholipids (Reagent Pathromtin) and CaCl2 0.008 M (Dade Behring, Germany) into small 2 ml vials at 37° C. Clots were washed 3 times with TBS 1× and incubated with contrast agents at 100 μM for 30 minutes at 37° C. Two clots were prepared for each solution of incubation. After the incubation clots were washed 4 times with TBS 1× and placed into small vials filled with TBS 1× for MRI analysis. T1-weighted 2D Spin-Echo (SE) images were acquired with the following parameters: TR/TE=400/8 ms, spatial resolution=344 μm and slice thickness=2 mm. Maximum signal intensity was measured in each image containing clot and compared to the signal from a clots incubated in TBS. […]\nThis protocol has been developed and used to test the specificity and efficiency of the fibrin targeted contrast agents of the invention for sensitive detection of thrombus by use of MRI. […] Signal enhancement from each sample incubated with the fibrin targeted contrast agent was evaluated and compared to a standard contrast agent ProHance®. […]\nHigh resolution MRI was then performed by using T1-weighted Spin-Echo (SE) sequences. T1 maps were also calculated from the acquisition of 2D gradient echo images or inversion recovery spin echo images. […]", "note": "Bridge positions count the residues as written; N and C are the ends.", "data": [{"substance": "Chelated Complex 1: Gd chelated complex (four DTPA-Glu units on branched lysine linker) conjugated to the fibrin-binding peptide; MRI contrast agent (Ac-WQPCPAESWTFCWDPGGGK-NH2; disulfide 4-12; not fully specified (some residues); also: further groups not given here)", "values": [{"measurement": "Max signal Enhancement at 100 μM", "setting": "human clots incubated with 100 μM complex, 30 minutes at 37° C., T1-weighted spin-echo MRI at 2T", "value": 100, "unit": "%"}, {"measurement": "signal enhancement in clots, ranking of tested compounds", "setting": "human clots, 100 μM concentration", "value": "maximum signal enhancement"}]}]}
